Target: human RXFP4 on stably transfected CHO-K1 cells (human) (UniProt Q8TDU9)
Assay: competitive binding of a europium-labelled ligand on cells

Sequence of UniProt Q8TDU9 (Q8TDU9 whole entry): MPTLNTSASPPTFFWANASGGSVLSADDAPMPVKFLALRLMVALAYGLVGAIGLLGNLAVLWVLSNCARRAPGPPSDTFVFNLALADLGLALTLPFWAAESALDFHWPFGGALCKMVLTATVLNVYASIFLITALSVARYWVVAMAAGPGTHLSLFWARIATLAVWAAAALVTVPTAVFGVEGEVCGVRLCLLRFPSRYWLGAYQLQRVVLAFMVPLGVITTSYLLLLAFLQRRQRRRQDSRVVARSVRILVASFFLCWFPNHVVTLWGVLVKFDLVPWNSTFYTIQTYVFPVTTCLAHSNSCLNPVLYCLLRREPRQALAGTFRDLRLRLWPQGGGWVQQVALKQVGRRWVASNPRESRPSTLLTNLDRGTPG

pKi: 8.19
Substance: recombinant two-chain human insulin-like peptide 5 (INSL5) (ligand)

— doi:10.1101/2022.07.28.501832
